From patent US20260183373

Key:
Aβ(1-40) = Aβ(1-40) (UniProt P05067)
Aβ(1-42) = Aβ(1-42) (UniProt P05067)

MMP2, sequence (P08253 110-660): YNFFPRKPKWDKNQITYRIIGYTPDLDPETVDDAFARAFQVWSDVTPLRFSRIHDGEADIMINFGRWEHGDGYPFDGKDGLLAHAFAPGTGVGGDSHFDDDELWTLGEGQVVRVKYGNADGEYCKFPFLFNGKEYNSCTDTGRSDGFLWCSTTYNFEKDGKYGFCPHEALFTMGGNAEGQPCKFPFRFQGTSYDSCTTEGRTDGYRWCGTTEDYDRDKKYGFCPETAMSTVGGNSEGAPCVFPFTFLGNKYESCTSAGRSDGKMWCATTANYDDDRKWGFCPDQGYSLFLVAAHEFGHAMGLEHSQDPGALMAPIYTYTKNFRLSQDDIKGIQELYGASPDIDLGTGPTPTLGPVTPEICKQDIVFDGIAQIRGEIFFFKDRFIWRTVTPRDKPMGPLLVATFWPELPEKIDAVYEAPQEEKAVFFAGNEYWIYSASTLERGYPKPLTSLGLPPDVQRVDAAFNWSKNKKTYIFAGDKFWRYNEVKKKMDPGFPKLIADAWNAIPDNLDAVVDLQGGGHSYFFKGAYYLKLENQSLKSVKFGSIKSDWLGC

| Substance | stated: cleaves; Aβ cleavage assay, intact Aβ by ELISA (% untreated) (Aβ(1-40)) | stated: cleaves; Aβ cleavage assay, intact Aβ by ELISA (% untreated) (Aβ(1-42)) |
| --- | --- | --- |
| MTSP1 | about 100 % up to about 30 nM, about 70 % near 100 nM, about 35 % near 300 nM, about 13 % at the highest concentration (about 1000 nM), no lower plateau | about 100 % up to about 10 nM, about 70 % near 100 nM, about 47 % near 300 nM, about 20 % at the highest concentration (about 1000 nM), no lower plateau |
| ECE1 | near 100 % up to about 10 nM, falls to about 30 % at the highest concentration (about 1000 nM), no lower plateau | near 100 % up to about 10 nM, falls only to about 60 % at the highest concentration (about 1000 nM), no lower plateau |
| MMP9 | about 100 % up to about 30 nM, about 80 % near 100 nM, about 40 % near 300 nM, about 10 % at the highest concentration (about 1000 nM), no lower plateau | about 80 % up to about 30 nM, about 60 % near 100 nM, about 35 % near 300 nM, below 10 % at the highest concentration (about 1000 nM), no lower plateau |
| MMP2 | about 105 % up to about 30 nM, about 45 % near 100 nM, about 0 % from about 300 nM | drifts from about 90 % to about 65 % between 0.01 and 30 nM (no flat upper plateau), about 40 % near 100 nM, about 0 % from about 300 nM |
| NEP2 | stays near 100 % up to about 10 nM, about 60 % near 30 nM, about 25 % near 100 nM, about 0 % from about 300 nM | stays near 90 % up to about 10 nM, about 60 % near 30 nM, about 35 % near 100 nM, about 0 % at the highest concentration (about 1000 nM) |
